According to patent US20230203482A1, “Methods of Rescuing Stop Codons via Genetic Reassignment with ACE-tRNA” (THE WISTAR INSTITUTE OF ANATOMY AND BIOLOGY, priority 2017, published 2023):
Entries after “also recorded” stand apart in the source; their conditions may differ.

B1: Glychr19.trna2: top performing glycine ACE-tRNA UGA suppressor, SEQ ID NO: 53 (nucleic acid)
chain: GCGTTGGTGGTATAGTGGTTAGCATAGCTGCCTTCAAAGCAGTTGACCCGGGTTCGATTCCCGGCCAACGCA
modifications: chemistry not fully specified

Experiments:
CFTR W1282X = test: Two-electrode voltage clamp of CFTR W1282X in Xenopus laevis oocytes; format: cell-based, human
Method: (§1) In vitro cRNA transcription. G542XUGA, W1282XUGA, and WT CFTR pGEMHE (Mense et al., 2006; PMID:1703051) plasmids were linearized by 10× excess of NheI-HF restriction enzyme (site positioned 3′ of coding region)(New England BioLabs, USA) for 3 hours at 37° C. and purified using standard cDNA precipition methods. All cRNAs were transcribed using the mMessage mMachine T7 Kit (ThermoFisher Scientific; USA). Purification of the cRNA from the transcription reaction was conducted on columns from the RNeasy Mini Kit (Qiagen, Germany). Concentration was determined by absorbance measurements at 260 nm and quality was confirmed on a 1% agarose gel (RNase-free). All cRNA was queued to […] before use and all results were generated from ≥2 cRNA preparations.
(§2) In vitro tRNA transcription. […] Equimolar concentration of T7 oligo (5)-taatacgactcactata-3′) was annealed to ACE-tRNA PAGE-purified Ultramers (20 ug; Integrated DNA Technologies, Coralville, Iowa) coding for the ACE-tRNA and preceded by a T7 promoter (italics). Importantly, the three terminal nucleotides containing CCA were included (bold).
The total reaction volume was adjusted to 100 μl and the kit reagents were added in the following amounts: 10 μl of 10X T7-Scribe transcription buffer, 7.5 μl of each nucleotide (100 mM stocks), 10 μl of 100 mM Dithiothreitol, 2.5 μl ScriptGuard RNase Inhibitor, 10 μl T7-Scribe enzyme solution. After the reaction was incubated for 4-5 hours at 37° C., the DNA template was digested with 5 μl DNase (1 U/μl) provided with the kit for 30-60 min. The ACE-tRNA was extracted from the reaction with acidic phenol chloroform (5:1, pH 4.5) and precipitated with ethanol. […]
(§3) Two-electrode voltage clamp (TEVC) recordings. CFTR Cl^− currents were recorded in ND96 bath solution that contained (in mM): 96 NaCl, 2 KCl, 1 MgCl2, and 5 HEPES (pH 7.5) in the presence of a maximal CFTR activation cocktail, forskolin ([…]; adenylate cyclase activator) and 3-isobutyl-1-methylxanthine (1 mM; phosphodiesterase inhibitor). […]

CFTR G542X = test: Two-electrode voltage clamp of CFTR G542X in Xenopus laevis oocytes; format: cell-based, human; settings: for rescued CFTR current relative to WT CFTR: compared to WT CFTR cRNA 25 ng
Method: as §1, §2
The total reaction volume was adjusted to 100 μl and the kit reagents were added in the following amounts: 10 μl of 10X T7-Scribe transcription buffer, 7.5 μl of each nucleotide (100 mM stocks), 10 μl of 100 mM Dithiothreitol, 2.5 μl ScriptGuard RNase Inhibitor, 10 μl T7-Scribe enzyme solution. After the reaction was incubated for 4-5 hours at 37° C., the DNA template was digested with 5 μl DNase (1 U/μl) provided with the kit for 30-60 min. The ACE-tRNA was extracted from the reaction with acidic phenol chloroform (5:1, pH 4.5) and precipitated with ethanol. The precipitates ACE-tRNA was pelleted, washed, dried and resuspended in 100 μl DEPC-treated water and further purified with Chrorna Spin-30 columns (Clontech, USA). The procedure yielded roughly 100 μl of ˜5 μg/μl ACE-tRNA. ACE-tRNAs were re-pelleted in 20 ug aliquots, washed, lyophilized and stored at −80° C. until use. All results were generated from ≥2 ACE-tRNA preparations.
Expression in Xenopus laevis oocytes. Xenopus laevis oocytes (stage V and VI) were purchased from Ecocyte (Austin, Tex.). Prior to injection, each ACE-tRNA pellet was resuspended in 2 μl of ddH2O and debris was pelleted at 21,000×g, 4° C. for 25 min. […]
as §3

| Molecule | Hill coefficient (CFTR W1282X; W1282X dose response) | CFTR chloride conductance, suppression of UGA PTC (CFTR W1282X; W1282X, 200 ng ACE-tRNA co-injected, forskolin and IBMX) | rescued CFTR current relative to WT CFTR (CFTR W1282X; W1282X, compared to WT CFTR cRNA 25 ng) [%] | Hill coefficient (CFTR G542X; G542X dose response) | CFTR chloride conductance, suppression of UGA PTC (CFTR G542X; G542X, 200 ng ACE-tRNA co-injected, forskolin and IBMX) | rescued CFTR current relative to WT CFTR (CFTR G542X; G542X) | rescued CFTR current relative to WT CFTR (CFTR G542X; G542X, listed as ACE-tRNAGly) |
| --- | --- | --- | --- | --- | --- | --- | --- |
| Trpchr17.trna39: top performing tryptophan ACE-tRNA UGA suppressor, SEQ ID NO: 48 | 1.24 | highly efficacious | ~50 | – | – | – | – |
| B1 | – | – | – | ~1.4 | highly efficacious | WT-like current levels of expression | clear saturation at WT CFTR levels; also recorded: achieves WT-level of expressed CFTR current |
